Measured values published in doi:10.1101/2021.06.15.448428.

Tests used:
Test in all cases: co-IP
Hmg2-GFP (S. cerevisiae) = Hmg2-GFP (S. cerevisiae) (UniProt P12684)
[1] = molecular target: Pdr5*-Myc (S. cerevisiae) (UniProt P33302)
[2] = molecular target: Ste6*-GFP (S. cerevisiae) (UniProt P12866)

Measured: fraction bound compared to wildtype Dfm1

Chain of UniProt P12866 (P12866 whole entry): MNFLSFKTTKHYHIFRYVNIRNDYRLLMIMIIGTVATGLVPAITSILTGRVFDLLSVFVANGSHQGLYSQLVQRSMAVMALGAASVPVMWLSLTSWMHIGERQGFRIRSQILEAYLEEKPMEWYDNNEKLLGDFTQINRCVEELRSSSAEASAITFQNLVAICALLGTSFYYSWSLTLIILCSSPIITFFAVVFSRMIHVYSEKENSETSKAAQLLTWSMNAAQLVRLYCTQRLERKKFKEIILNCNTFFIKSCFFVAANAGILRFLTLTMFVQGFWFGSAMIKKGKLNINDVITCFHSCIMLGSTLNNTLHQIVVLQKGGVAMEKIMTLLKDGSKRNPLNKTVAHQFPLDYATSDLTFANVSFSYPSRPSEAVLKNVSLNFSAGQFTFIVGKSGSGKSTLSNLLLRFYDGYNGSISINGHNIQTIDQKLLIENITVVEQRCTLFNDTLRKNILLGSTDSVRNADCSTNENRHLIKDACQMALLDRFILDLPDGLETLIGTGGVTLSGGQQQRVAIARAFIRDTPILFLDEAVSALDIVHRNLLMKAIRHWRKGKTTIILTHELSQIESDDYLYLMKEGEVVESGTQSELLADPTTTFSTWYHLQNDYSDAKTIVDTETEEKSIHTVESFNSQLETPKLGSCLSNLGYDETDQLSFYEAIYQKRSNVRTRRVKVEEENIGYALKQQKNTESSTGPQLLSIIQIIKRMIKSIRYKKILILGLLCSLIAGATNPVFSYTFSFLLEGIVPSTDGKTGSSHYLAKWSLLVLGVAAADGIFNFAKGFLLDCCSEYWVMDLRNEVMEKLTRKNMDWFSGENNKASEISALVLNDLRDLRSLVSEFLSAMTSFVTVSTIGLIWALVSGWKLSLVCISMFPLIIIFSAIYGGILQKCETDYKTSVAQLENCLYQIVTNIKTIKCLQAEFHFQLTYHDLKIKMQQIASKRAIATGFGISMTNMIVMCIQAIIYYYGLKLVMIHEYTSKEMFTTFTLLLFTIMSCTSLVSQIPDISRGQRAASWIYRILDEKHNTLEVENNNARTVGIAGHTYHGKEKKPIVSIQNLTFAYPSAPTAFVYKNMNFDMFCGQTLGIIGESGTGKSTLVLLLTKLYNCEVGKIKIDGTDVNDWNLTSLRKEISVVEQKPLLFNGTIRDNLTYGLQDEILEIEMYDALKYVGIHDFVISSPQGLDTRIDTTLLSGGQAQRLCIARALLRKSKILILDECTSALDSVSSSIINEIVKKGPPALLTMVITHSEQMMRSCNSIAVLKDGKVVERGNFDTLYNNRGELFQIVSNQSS
Chain of UniProt P12684 (P12684 whole entry): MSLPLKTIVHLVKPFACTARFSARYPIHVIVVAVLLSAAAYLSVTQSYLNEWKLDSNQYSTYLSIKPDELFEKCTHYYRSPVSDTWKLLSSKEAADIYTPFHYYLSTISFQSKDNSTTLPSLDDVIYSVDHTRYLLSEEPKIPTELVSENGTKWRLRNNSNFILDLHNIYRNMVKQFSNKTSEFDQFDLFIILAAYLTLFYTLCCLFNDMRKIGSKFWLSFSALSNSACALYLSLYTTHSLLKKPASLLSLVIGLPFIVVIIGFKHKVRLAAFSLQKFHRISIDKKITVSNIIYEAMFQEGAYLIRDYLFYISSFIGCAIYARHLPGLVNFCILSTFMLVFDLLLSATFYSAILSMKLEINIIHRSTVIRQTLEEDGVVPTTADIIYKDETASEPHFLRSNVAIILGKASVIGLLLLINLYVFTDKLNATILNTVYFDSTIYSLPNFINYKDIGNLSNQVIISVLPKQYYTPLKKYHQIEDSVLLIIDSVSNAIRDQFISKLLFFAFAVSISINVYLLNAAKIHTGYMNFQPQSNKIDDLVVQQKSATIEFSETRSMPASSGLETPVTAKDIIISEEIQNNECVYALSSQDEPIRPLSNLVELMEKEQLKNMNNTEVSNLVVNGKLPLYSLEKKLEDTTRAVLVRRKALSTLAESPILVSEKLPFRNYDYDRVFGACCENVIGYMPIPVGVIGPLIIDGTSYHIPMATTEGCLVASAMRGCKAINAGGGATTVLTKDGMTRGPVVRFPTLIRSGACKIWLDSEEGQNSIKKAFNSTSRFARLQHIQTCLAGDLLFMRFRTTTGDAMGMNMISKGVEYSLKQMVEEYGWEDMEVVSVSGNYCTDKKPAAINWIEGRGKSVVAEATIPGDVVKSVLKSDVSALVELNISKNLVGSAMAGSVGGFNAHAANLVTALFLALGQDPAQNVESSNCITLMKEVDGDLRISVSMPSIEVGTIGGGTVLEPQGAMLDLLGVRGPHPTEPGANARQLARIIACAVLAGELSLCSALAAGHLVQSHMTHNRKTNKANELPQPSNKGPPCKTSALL
Chain of UniProt P33302 (P33302 whole entry): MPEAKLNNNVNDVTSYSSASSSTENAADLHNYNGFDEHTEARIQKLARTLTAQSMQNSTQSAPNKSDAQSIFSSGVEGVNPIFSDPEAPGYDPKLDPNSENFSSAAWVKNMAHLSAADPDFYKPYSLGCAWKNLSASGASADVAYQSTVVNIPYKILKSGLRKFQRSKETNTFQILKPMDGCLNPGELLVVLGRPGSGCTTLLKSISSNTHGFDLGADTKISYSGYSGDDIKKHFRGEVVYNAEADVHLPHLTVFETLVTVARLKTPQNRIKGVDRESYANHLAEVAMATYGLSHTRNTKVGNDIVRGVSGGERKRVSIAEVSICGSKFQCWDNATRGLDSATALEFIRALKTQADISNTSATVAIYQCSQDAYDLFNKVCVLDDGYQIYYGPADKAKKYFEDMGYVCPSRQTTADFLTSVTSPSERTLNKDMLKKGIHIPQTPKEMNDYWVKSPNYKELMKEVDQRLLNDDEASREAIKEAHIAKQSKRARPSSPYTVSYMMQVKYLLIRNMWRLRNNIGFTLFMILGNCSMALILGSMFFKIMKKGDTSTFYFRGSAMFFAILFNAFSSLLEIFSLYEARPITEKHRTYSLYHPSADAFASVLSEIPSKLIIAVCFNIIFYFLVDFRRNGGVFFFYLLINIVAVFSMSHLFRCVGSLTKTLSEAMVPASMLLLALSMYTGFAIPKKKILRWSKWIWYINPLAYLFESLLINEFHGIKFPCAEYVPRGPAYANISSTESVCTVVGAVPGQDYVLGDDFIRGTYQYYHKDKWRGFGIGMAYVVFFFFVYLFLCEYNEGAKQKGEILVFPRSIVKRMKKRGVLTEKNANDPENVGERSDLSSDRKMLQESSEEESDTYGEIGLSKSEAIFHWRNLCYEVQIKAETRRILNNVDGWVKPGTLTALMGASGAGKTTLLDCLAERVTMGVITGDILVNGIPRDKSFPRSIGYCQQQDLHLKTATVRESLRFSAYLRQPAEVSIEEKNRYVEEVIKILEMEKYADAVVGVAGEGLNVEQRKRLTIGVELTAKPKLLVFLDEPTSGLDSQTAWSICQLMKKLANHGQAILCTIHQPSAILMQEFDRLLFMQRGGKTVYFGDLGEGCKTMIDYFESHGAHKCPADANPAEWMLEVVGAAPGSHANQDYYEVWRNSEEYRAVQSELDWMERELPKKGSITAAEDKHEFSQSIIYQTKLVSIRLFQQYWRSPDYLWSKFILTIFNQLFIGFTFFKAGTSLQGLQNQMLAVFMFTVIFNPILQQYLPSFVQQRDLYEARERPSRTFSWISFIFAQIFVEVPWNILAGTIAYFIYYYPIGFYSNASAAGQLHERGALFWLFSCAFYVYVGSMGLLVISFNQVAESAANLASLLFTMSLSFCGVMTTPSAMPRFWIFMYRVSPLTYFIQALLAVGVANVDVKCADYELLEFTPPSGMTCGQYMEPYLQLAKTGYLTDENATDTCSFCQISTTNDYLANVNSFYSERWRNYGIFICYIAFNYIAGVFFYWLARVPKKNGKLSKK

Dfm1-5Ashp (from UniProt Q12743 1-341) (natural protein)
< 5%: all assays above
